Measured values: patent publication US6713276B2, “Modulation of Aβ levels by β-secretase BACE2” (Scios, Inc., priority 2000, dated 2004)

Tested on: APP751sw processing in SK-N-MC cells
Test: co-transfection with APP751sw in SK-N-MC neuroblastoma cells, ELISA of conditioned medium
Format: cell-based, human
Details: co-transfected with APP751sw
Method: Expression vectors containing BACE and BACE2 cDNAs were transfected into HEK293T cells in the presence of APP751sw or CT100 (Shoji et al., Science 258: 126-129 [1992]; Lichtenthaler et al., Proc. Natl. Acad. Sci. USA 96: 3053-3058 [1999]). Transfections were performed in 24 well plates using Lipofectamine Plus (Gibco/BRL, Bethesda, Md.) and DNA concentrations were kept constant by including non-specific DNA. Expression plasmids were tested for BACE and BACE2 expression by Western blotting. Cell culture supernatants were collected 48 hours and 72 hours post-transfection, and assayed for α-NTF, β-NTF and Aβ formation. β-NTF measurement was performed as described below. α-NTF was captured like β-NTF but was detected with biotinylated 2H3 (Johnson-Wood et al., Proc. Nati. Acad. Sci. USA 94: 1550-1555 [1997]). Aβ levels were determined by an ELISA using monoclonal antibodies 266 for capture and biotinylated 3D6 for detection (see Johnson-Wood et al., [1997] ibid for antibody epitope description). Aβ42, in contrast, was captured using 21F 12 and detected with biotinylated 3D6. […]
We further assessed the modulatory effect of BACE2 on Aβ formation using a human neuroblastoma cell line, SK-N-MC.

B1: BACE2: human aspartyl protease, close homolog of BACE (SEQ ID NO: 2), expressed from pcDNA3.1(−)/BACE2 in transfected cells (protein)
chain: MGALARALLLPLLAQWLLRAAPELAPAPFTLPLRVAAATNRVVAPTPGPGTPAERHADGLALALEPALASPAGAANFLAMVDNLQGDSGRGYYLEMLIGTPPQKLQILVDTGSSNFAVAGTPHSYIDTYFDTERSSTYRSKGFDVTVKYTQGSWTGFVGEDLVTIPKGFNTSFLVNIATIFESENFFLPGIKWNGILGLAYATLAKPSSSLETFFDSLVTQANIPNVFSMQMCGAGLPVAGSGTNGGSLVLGGIEPSLYKGDIWYTPIKEEWYYQIEILKLEIGGQSLNLDCREYNADKAIVDSGTTLLRLPQKVFDAVVEAVARASLIPEFSDGFWTGSQLACWTNSETPWSYFPKISIYLRDENSSRSFRITILPQLYIQPMMGAGLNYECYRFGISPSTNALVIGATVMEGFYVIFDRAQKRVGFAASPCAEIAGAAVSEISGPFSTEDVASNCVPAQSLSEPILWIVSYALMSVCGAILLVLIVLLLLPFRCQRRPRDPEVVNDESSLVRHRWK
B1 was tested, and the “Aβ in conditioned medium” value was “significant reduction of Aβ” and the “β-NTF in conditioned medium” value was “showed β-secretase activity in vivo”.
